From US20050142568A1 (published 2005) come the findings set out here.

B1: ^35S-Methionine labeled CRN-6 (enzyme, C. elegans, UniProt P34508-2 18-373, looked up)
chain: AYQCKDNNGSNVDWFVFYKLPHLWNHPDNVPISNGTGFLYFDVNNKNWKLMPQGMDVENNAVYYTLQQYYNSNMNTTFSYMYNDEWPDSTIWSNSSGHAKGVTVFDQYTGFWMIHSIPKFPSKDMFRFPSNAHYYGQMGICISYNTVSLATIAQQLFYYNTFTYQFNLPQSFANQFPVLSQLKNKEYNKSPPLTSTKVLKSLGGQHFRHFAKTGEWGKDLYSDFVGPTLKSSIKVETWNHQSGDEYNLPSVCDPNHVQSTMSAKYIRLPYAIDYSSYEDHSKFVVAYSESSSKPPIPYVCIGDINRQSHQIHRGGGTMCIYDQETYFQFANIISETVPCTKATAEKVDALANNRYF
modifications: 35S-methionine labelled
B2: GST-CRN-1 (other, C. elegans, UniProt Q9N3T2 21-382, looked up)
chain: NEMKAFFGRTVAIDASMCLYQFLIAVRQDGSQLQSEDGETTSHLMGMLNRTVRMFENGVKPVYVFDGKPPDMKGGELEKRSERRAEAEKALTEAKEKGDVKEAEKFERRLVKVTKQQNDEAKRLLGLMGIPVVEAPCEAEAQCAHLVKAGKVFGTVTEDMDALTFGSTVLLRHFLAPVAKKIPIKEFNLSLALEEMKLSVEEFIDLCILLGCDYCGTIRGVGPKKAVELIRQHKNIETILENIDQNKYPPPEDWPYKRARELFLNPEVTKPEEVELTWKEADVEGVIQFLCGEKNFNEERIRNALAKLKTSRKSGTQGRIDSFFGNSTKVTCVTAATKRKAEEAEKAKKGAKKGGPPKKRAK
notes: also called CRN-1 GST-fusion protein; not shown: glutathione S-transferase tag encoded by vector pGEX4T-2
B3: GST-CRN-4 (other, C. elegans, UniProt Q10905 1-298, looked up)
chain: MAYQHCPFDTLLILDFETTSDAANQDYPCEVIQFAIVAYDVPNDKIREDISFNKYVKPVLNRTLTKNCVDFTGIPQRSIDTADTFDVVYEQFQQWLITLGLEEGKFAFVCDSRQDLWRIAQYQMKLSNIQMPAFFRQYINLYKIFTNEMDRMGPKELSATTNIGKMNEYYDLPTIGRAHDAMDDCLNIATILQRMINMGAKVTVNELLTCCASWRRQPLVYNKEWRSSFMDAGKIFERVLPLVVTTIRAGDFRLEMYGVCRYCRKGMDVCGTSHQQTPHDLYKNEEDPIHFAKIAGYY
notes: also called CRN-4 GST-fusion protein; not shown: glutathione S-transferase tag encoded by vector pGEX4T-2
B4: ^35S-Methionine labeled CRN-4 (enzyme, C. elegans, UniProt Q10905 1-298, looked up)
chain: B3 chain
modifications: 35S-methionine labelled
B5: ^35S-Methionine labeled CRN-5 (enzyme, C. elegans)
chain: MAGRLREMRCELSFLKNADGSACFSQGATCIWASCSGPGDVHASKASDEAMTLDISYRANCGDNKFNVLNNIIHSTLSNAINLELFPHTTISVTVHGIQDDGSMGAVAINGACFALLDNGMPFETVFCGVLIVRVKDELIIDPTAKQEAASTGRVLFSVCKGSDGHPEVCAMDAIGHWDFIQLEAAWSLAQPSASAIFDFYKTVMKRKLSVDEQ
B6: GST-CRN-5 (other)
chain: B5 chain
notes: also called CRN-5 GST-fusion protein; not shown: GST carrier and the linker of vector pGEX4T-2
B7: ^35S-Methionine labeled NUC-1 (enzyme, C. elegans, UniProt Q17778 22-375, looked up)
chain: AFSCKDQSGNDVDWFAVYKMPIEKDDGSVTGLAGGVAWYYVDVNKKGTLTPSAKTLDDNDQAIAYTLQQYYDKQNDKTIFHVMYNDEPWGSKSTSGIKLEEILSNRVYSNYTHEDDSTSTAFGHTKGTIFFDGTSGVWLVHSVPLFPNPTKYEYPVSGHDYGQTMLCMTFKYAQLKSIGTQLFFNRPNIYSSNLPTNMAADNADLAKAIAGQYQKGQPFQSVIELETMAGYSFTNFAKSKEFNADLYDTLVAPTLKTDLVVETWRRGSEIPLDCKLTYHANDALSIHVGSTTAFSYTKDHSKMAHSADMTKPWVCIGDINRMTSQYVRGGGTTCISSSFLWKAYSVIATQNNCA
modifications: 35S-methionine labelled
B8: GST-NUC-1 (other, C. elegans, UniProt Q17778 22-375, looked up)
chain: B7 chain
notes: also called NUC-1 GST-fusion protein; not shown: glutathione S-transferase tag encoded by vector pGEX4T-2
B9: ^35S-Methionine labeled CYP-13 (enzyme)
chain: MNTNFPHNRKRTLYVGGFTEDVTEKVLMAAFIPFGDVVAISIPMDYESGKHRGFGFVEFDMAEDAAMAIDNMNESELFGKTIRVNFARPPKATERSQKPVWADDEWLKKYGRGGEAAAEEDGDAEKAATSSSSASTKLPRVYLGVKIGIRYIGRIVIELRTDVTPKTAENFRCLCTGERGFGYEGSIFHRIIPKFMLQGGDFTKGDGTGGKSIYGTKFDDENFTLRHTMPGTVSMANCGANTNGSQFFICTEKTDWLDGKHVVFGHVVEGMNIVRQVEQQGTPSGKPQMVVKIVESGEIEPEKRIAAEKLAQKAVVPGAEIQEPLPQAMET
notes: also called ^35S-CYP-13; CPY-13

Holding throughout (experiment): GST pull-down, 35S-Met protein vs GST fusion; - means no detectable binding (footnote a)
Test [1] deals with B2. Here is the method:
(§1) GST fusion protein pull-down assays were performed as described in J. Parrish, H. Metters, L. Chen, D. Xue, Proc. Natl. Acad. Sci. U.S.A. 97, 11916 (2000). Purified GST or GST-fusion proteins (5 μg each) immobilized on glutathione sepharose beads were incubated with ³⁵S-Methionine labeled proteins at 4° C. for 2 hours. The beads were washed extensively and the bound proteins were resolved on a 12% SDS-PAGE and visualized by autoradiography. [0103] cDNAs corresponding to the ORFs were cloned into the pPD129.36 vector via its Nhe I and Xho I sites or the Xho I site alone. Full-length cDNAs were subcloned into the pGEX4T-2 vector for generating GST fusion proteins and for further protein purification and into the pcDNA3.1 vector for in vitro transcription/translation experiments.
(§2) ^aInteractions were evaluated relative to background binding of ³⁵S-Methionine labeled Luciferase to GST-fusion proteins and ³⁵S-Methionine labeled proteins to GST. “−” indicates no detectable binding, “+” indicates an interaction consistently observed above background levels, and “++” indicates a strong interaction. ^bBecause ³⁵S-Methionine labeled CRN-1 binds GST tightly, it was not possible to evaluate interactions between ³⁵S-CRN-1 and various GST-fusion proteins. ND, not determined.

The target of test [2] is T1, GST-CRN-6 (C. elegans, UniProt P08515 1-218 = GST; P34508 1-373).
T1 construct: Two crn-6 cDNAs (700 bp and 1.1 kb) were isolated; the longer one made the GST fusion; also called CRN-6 GST-fusion protein
Here is the method:
as §1, §2

Test [3] addresses T2, GST-CRN-3 (C. elegans, UniProt G5EBX6 1-876).
T2 construct: also called CRN-3 GST-fusion protein; not shown: glutathione S-transferase tag encoded by vector pGEX4T-2
T2 sequence: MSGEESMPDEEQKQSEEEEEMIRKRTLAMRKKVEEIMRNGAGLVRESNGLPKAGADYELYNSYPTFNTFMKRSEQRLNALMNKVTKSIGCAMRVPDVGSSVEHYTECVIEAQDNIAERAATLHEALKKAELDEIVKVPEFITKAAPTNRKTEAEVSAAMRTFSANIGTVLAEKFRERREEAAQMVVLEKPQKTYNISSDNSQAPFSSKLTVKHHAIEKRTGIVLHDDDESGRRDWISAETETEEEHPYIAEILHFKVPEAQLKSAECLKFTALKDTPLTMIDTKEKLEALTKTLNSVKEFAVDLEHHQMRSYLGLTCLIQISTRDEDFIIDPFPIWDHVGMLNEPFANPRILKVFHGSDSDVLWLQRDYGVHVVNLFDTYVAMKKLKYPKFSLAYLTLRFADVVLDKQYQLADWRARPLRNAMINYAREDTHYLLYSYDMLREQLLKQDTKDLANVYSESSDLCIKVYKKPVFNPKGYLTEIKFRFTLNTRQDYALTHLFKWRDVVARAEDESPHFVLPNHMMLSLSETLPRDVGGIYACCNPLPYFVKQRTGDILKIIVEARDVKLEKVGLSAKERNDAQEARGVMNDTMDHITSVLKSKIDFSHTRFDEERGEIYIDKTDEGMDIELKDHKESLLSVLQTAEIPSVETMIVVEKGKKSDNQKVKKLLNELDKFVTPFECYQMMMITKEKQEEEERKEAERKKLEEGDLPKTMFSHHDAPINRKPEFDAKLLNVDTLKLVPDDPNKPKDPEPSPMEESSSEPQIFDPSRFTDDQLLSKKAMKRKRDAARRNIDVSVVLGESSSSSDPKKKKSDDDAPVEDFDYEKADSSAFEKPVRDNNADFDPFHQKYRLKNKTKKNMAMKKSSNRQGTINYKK
Here is the method: as §1, §2

Test [4] deals with T3, ^35S-Methionine labeled CRN-3 (C. elegans, UniProt G5EBX6 1-876).
T3 sequence: T2 sequence
As to the method: as §1, §2

Test [5] has as its target B1. As to the method:
as §1, §2

The target of test [6] is T4, GST (glutathione-S transferase alone) (UniProt P08515 1-218 = GST).
T4 construct: Purified GST used as negative control bait on glutathione sepharose beads; also called OST
T4 sequence (P08515 whole entry): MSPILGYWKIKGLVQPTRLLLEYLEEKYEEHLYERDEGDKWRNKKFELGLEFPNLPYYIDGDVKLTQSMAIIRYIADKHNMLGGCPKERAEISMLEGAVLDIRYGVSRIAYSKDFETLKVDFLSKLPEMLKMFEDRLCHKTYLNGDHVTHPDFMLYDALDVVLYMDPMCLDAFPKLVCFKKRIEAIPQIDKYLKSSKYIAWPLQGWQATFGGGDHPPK
As to the method:
as §1, §2

In test [7] the target is B8. As to the method:
as §1, §2

Turning to B1, the binding result in test [1], in test [2] and in test [3] was “no binding” in each case.

For the molecule B2, the binding result in test [4] is “no binding”.

Turning to B3, the binding result in test [5] and in test [4] was “no binding” throughout.

Regarding B4, the binding result in test [2] and in test [3] was “no binding” throughout.

Take B5: the binding result in test [1], in test [2] and in test [6] was “no binding” throughout.

For B6, the binding result in test [5] was “no binding”.

For B7, the binding result in test [1], in test [2] and in test [7] was “no binding” throughout.

For the molecule B8, in test [5], the binding result is reported as “no binding”.

On to B9, for which the binding result in test [2], in test [7], in test [3] and in test [6] was “no binding” in each case.
